From patent US8143366B2, “Aryl carbamate oligomers for hydrolyzable prodrugs and prodrugs comprising same” (priority 2003, dated 2012)
Read-outs that look alike come from different tables or passages of the source.

What was measured:
[1] = Ex vivo hydrolysis in rat plasma at 37° C.; assay type: in vitro ADME; settings: Table 2 conjugates, average of three experiments ± s. d.
Description: Experiments using rat plasma were conducted in similar fashion to the esterase hydrolysis experiments. A stock, or reference, solution of each conjugate was made that was ˜15 mg/mL in DMSO. Two hundred microliters of stock were added to 800 μL 50 mM PBS buffer. Fifty microliters of this latter solution were added to 950 μL rat plasma and placed at 37° C. in a reciprocal waterbath shaker. At the appropriate time intervals, a 50 μl, aliquot was taken, added to 100 μl, ACN, and vigorously vortexed for 1 minute. The sample was centrifuged at 10,000 rpm for 5 minutes and 50 μL, of supernatant was then injected for HPLC analysis. A calibration curve for measuring the concentration of each conjugate was made.

[2] = molecular target: T1, rabbit liver carboxylesterase (Oryctolagus cuniculus, UniProt P12337); assay: in vitro; settings: purified rabbit liver carboxylesterase in PBS buffer, pH 7.4
Description: (§1) Stock, or reference, solutions of hydrolyzable conjugates were first prepared at ˜2 mg/mL in DMSO. Working solutions of the hydrolyzable conjugates were then prepared in triplicate (working solutions A). Fifty microliters of stock conjugate were added to 5.0 mL 50 mM PBS buffer.
(§2) A stock solution of carboxylesterase was prepared by adding ˜2 mg esterase to 2.0 mL 50 mM PBS buffer. A working solution of carboxylesterase was prepared by diluting 50 uL of the stock solution with 5.0 mL 50 mM PBS buffer (working solution B).
(§3) Five hundred microliters of working solution B were then added to each working solution A (0.5 units enzyme and between 10-20 μM conjugate). The reaction mixtures were immediately vortexed and sampled for a time=0 analysis. The reaction solutions were incubated at 37° C. in a reciprocal waterbath shaker. At appropriate time intervals during incubation, 75 μL aliquots were taken and injected directly on HPLC for hydrolysis rate data. With each experiment, a new calibration curve for the particular conjugate was made.
(§4) The pseudo first-order rate constant, or “k”, is obtained from the slope of the natural log of the concentration of the conjugate versus time curve. The half-life is then calculated from k.

[3] = molecular target: T1, rabbit liver carboxylesterase; settings: pH 7.4
Description: as §1, §2, §3, §4

T1 sequence (P12337 19-565): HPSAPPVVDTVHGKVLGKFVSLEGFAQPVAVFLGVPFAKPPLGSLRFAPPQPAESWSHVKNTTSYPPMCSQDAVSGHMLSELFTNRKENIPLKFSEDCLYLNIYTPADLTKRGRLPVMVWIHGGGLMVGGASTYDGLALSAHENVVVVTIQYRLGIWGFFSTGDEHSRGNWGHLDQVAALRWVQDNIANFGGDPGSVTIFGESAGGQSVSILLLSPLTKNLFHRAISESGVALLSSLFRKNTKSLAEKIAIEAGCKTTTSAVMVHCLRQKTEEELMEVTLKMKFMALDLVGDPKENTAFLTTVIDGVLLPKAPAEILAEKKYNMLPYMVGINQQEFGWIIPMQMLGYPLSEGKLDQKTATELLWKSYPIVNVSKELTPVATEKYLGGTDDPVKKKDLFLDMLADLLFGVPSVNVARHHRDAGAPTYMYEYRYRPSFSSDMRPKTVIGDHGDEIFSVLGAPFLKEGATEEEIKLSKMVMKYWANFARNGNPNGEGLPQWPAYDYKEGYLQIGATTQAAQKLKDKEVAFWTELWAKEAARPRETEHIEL

SMILES | half-life at […] [1] [h] | half-life [2] [h] | t1/2 [1] | half-life [1] [h] | half-life [3] [h]
COCCOCCOCCOCCOc1ccc(OC(=O)N[C@@H](Cc2ccc(O)cc2)C(=O)NCC(=O)NCC(=O)N[C@@H](Cc2ccccc2)C(=O)N[C@@H](CC(C)C)C(=O)O)cc1 | 0.912 ± 0.0723 | 6.9 ± 0.1 |  |  | 
CCCCCCCCCCCCOCCOCCOCCOCCOCCOCCOCCOCCOc1ccc(OC(=O)N[C@@H](Cc2ccc(O)cc2)C(=O)NCC(=O)NCC(=O)N[C@@H](Cc2ccccc2)C(=O)N[C@@H](CC(C)C)C(=O)O)cc1 | 2.33 ± 0.0723 | 10.4 ± 0.9 |  |  | 
COCCOCCOCCOCCNC(=O)c1ccc(OC(=O)N[C@@H](Cc2ccc(O)cc2)C(=O)NCC(=O)NCC(=O)N[C@@H](Cc2ccccc2)C(=O)N[C@@H](CC(C)C)C(=O)O)cc1 |  | 0.04 ± 0.17 | ~Immediate Hydrolysis |  | 
COCCOCCOCCOCCOC(=O)NC(Cc1ccc(OC(=O)N[C@@H](Cc2ccc(O)cc2)C(=O)NCC(=O)NCC(=O)N[C@@H](Cc2ccccc2)C(=O)N[C@@H](CC(C)C)C(=O)O)cc1)C(=O)OC (some centres unmarked) | 0.251 ± 0.0772 | 1.3 ± 0.04 |  |  | 
COCCOCCOCCOCCNC(=O)c1cc(OC(=O)N[C@@H](Cc2ccc(O)cc2)C(=O)NCC(=O)NCC(=O)N[C@@H](Cc2ccccc2)C(=O)N[C@@H](CC(C)C)C(=O)O)cc(C(=O)NCCOCCOCCOCCOC)c1 |  | 0.03 ± 0.12 | ~Immediate Hydrolysis |  | 
COCCOCCOCCOCCOc1ccc(OC(=O)N[C@@H](Cc2ccc(O)cc2)C(=O)NCC(=O)NCC(=O)N[C@@H](Cc2ccccc2)C(=O)N[C@@H](CC(C)C)C(=O)O)cc1OCCOC |  |  |  | 0.354 ± 0.0667 | 2.7 ± 0.2
COCCOCCOCCOCCOCc1ccc(OC(=O)N[C@@H](Cc2ccc(O)cc2)C(=O)NCC(=O)NCC(=O)N[C@@H](Cc2ccccc2)C(=O)N[C@@H](CC(C)C)C(=O)O)cc1 | 0.027 ± 0.00733 | 1.4 ± 0.1 |  |  | 
